In PMC2756588:

T1: Abp1, P15891
T1 sequence (P15891 535-592, looked up): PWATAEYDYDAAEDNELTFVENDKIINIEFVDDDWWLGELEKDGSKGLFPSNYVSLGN

T2: Bbc1, P47068
T2 sequence (P47068 1-78, looked up): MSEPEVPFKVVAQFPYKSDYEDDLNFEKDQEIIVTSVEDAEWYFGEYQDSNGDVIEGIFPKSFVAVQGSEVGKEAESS

T3: Boi1, P38041
T3 sequence (P38041 1-86, looked up): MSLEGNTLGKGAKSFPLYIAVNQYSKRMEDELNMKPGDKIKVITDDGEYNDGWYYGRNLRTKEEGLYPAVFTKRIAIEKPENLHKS

T4: Boi2, P39969
T4 sequence (P39969 32-116, looked up): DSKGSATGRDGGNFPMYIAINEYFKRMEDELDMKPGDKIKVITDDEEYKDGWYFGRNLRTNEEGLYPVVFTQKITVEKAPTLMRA

T5: Bud14, P27637
T5 sequence (P27637 247-328, looked up): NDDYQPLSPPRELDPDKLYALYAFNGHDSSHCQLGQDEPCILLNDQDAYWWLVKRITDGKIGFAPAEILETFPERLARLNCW

T6: Bzz1-1, P38822
T6 sequence (P38822 478-572, looked up): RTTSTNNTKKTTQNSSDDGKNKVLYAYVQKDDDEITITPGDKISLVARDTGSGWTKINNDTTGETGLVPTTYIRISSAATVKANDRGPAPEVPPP

T7: Bzz1-2, P38822
T7 sequence (P38822 568-633, looked up): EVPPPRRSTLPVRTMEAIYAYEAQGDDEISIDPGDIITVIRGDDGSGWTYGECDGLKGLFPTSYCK

T8: Cdc25, P04821
T8 sequence (P04821 50-136, looked up): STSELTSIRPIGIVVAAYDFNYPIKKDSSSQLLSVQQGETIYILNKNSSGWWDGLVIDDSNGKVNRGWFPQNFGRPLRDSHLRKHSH

T9: Cyk3, Q07533
T9 sequence (Q07533 1-83, looked up): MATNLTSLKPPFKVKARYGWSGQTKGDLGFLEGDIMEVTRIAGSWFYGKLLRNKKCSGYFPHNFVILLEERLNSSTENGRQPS

T10: Fus1, P11710
T10 sequence (P11710 432-512, looked up): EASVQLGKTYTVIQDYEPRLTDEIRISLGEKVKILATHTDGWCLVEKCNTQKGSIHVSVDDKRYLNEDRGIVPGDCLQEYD

T11: Hof1, Q05080
T11 sequence (Q05080 590-669, looked up): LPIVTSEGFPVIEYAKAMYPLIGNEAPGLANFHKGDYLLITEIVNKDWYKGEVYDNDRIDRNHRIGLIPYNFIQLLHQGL

T12: Hse1, P38753
T12 sequence (P38753 208-285, looked up): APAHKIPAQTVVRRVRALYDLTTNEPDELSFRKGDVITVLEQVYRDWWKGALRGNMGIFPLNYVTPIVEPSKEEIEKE

T13: Lsb1, P53281
T13 sequence (P53281 45-122, looked up): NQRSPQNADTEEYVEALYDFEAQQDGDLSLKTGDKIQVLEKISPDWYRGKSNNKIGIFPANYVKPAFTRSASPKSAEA

T14: Lsb3, P43603
T14 sequence (P43603 385-451, looked up): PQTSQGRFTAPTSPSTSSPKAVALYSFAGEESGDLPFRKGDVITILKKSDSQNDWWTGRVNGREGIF

T15: Lsb4, P32793
T15 sequence (P32793 402-468, looked up): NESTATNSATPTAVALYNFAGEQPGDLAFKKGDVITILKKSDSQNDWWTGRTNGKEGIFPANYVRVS

T16: Myo5, Q04439
T16 sequence (Q04439 1072-1160, looked up): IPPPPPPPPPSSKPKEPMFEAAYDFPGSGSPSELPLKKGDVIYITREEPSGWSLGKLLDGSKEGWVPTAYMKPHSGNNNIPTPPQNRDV

T17: Nbp2, Q12163
T17 sequence (Q12163 103-180, looked up): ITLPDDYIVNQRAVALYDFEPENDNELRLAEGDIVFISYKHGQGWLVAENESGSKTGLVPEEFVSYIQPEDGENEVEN

T18: Pex13, P80667
T18 sequence (P80667 295-386, looked up): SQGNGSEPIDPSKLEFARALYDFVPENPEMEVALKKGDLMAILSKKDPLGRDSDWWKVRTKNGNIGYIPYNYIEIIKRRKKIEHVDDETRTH

T19: Pin3, Q06449
T19 sequence (Q06449 53-122, looked up): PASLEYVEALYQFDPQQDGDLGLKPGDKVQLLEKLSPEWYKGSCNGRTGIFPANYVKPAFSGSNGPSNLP

T20: Sla1-2, P32790
T20 sequence (P32790 60-140, looked up): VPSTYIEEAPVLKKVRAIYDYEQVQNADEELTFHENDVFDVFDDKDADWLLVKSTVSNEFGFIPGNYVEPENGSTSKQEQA

T21: Sla1-3, P32790
T21 sequence (P32790 344-424, looked up): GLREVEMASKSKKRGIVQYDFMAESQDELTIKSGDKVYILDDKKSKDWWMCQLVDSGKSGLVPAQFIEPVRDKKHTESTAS


Key:
Assay in all cases: SPOT array
Abp1, P15891 = biological target: T1, Abp1, P15891; details: median of control spots 935
Bbc1, P47068 = biological target: T2, Bbc1, P47068; details: median of control spots 796
Bem1-1, P29366 = details: median of control spots 4282
Sequence of Bem1-1, P29366 (P29366 55-141): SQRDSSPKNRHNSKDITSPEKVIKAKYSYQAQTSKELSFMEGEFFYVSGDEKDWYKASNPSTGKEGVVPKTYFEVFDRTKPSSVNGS

Bem1-2, P29366 = details: median of control spots 4347
Sequence of Bem1-2, P29366 (P29366 139-227): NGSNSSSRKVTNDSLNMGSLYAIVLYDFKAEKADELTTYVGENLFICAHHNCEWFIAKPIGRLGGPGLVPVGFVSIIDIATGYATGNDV

Boi1, P38041 = biological target: T3, Boi1, P38041; details: median of control spots 1162
Boi2, P39969 = biological target: T4, Boi2, P39969; details: median of control spots 1161
Bud14, P27637 = biological target: T5, Bud14, P27637; details: median of control spots 956
Bzz1-1, P38822 = biological target: T6, Bzz1-1, P38822; details: median of control spots 4446
Bzz1-2, P38822 = biological target: T7, Bzz1-2, P38822; details: median of control spots 4538
Cdc25, P04821 = biological target: T8, Cdc25, P04821; details: median of control spots 969
Cyk3, Q07533 = biological target: T9, Cyk3, Q07533; details: median of control spots 1451
Fus1, P11710 = biological target: T10, Fus1, P11710; details: median of control spots 1200
GST = details: median of control spots 978
Hof1, Q05080 = biological target: T11, Hof1, Q05080; details: median of control spots 4086
Hse1, P38753 = biological target: T12, Hse1, P38753; details: median of control spots 1727
Lsb1, P53281 = biological target: T13, Lsb1, P53281; details: median of control spots 388
Lsb3, P43603 = biological target: T14, Lsb3, P43603; details: median of control spots 406
Lsb4, P32793 = biological target: T15, Lsb4, P32793; details: median of control spots 397
Myo3, P36006 = details: median of control spots 468
Myo5, Q04439 = biological target: T16, Myo5, Q04439; details: median of control spots 471
Nbp2, Q12163 = biological target: T17, Nbp2, Q12163; details: median of control spots 357
Pex13, P80667 = biological target: T18, Pex13, P80667; details: median of control spots 1341
Pin3, Q06449 = biological target: T19, Pin3, Q06449; details: median of control spots 2171
Rvs167, P39743 = details: median of control spots 2707
Sequence of Rvs167, P39743 (P39743 419-482): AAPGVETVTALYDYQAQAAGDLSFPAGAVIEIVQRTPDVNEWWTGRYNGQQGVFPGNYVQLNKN

Sho1, P40073 = details: median of control spots 1148
Sequence of Sho1, P40073 (P40073 287-367): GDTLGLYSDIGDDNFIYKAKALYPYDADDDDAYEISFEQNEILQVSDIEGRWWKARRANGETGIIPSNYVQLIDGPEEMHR

Sla1-2, P32790 = biological target: T20, Sla1-2, P32790; details: median of control spots 712
Sla1-3, P32790 = biological target: T21, Sla1-3, P32790; details: median of control spots 5475

Row | SPOT intensity (Abp1, P15891) | SPOT intensity (Bbc1, P47068) | SPOT intensity (Bem1-1, P29366) | SPOT intensity (Bem1-2, P29366) | SPOT intensity (Boi1, P38041) | SPOT intensity (Boi2, P39969) | SPOT intensity (Bud14, P27637) | SPOT intensity (Bzz1-1, P38822) | SPOT intensity (Bzz1-2, P38822) | SPOT intensity (Cdc25, P04821) | SPOT intensity (Cyk3, Q07533) | SPOT intensity (Fus1, P11710) | SPOT intensity (GST) | SPOT intensity (Hof1, Q05080) | SPOT intensity (Hse1, P38753) | SPOT intensity (Lsb1, P53281) | SPOT intensity (Lsb3, P43603) | SPOT intensity (Lsb4, P32793) | SPOT intensity (Myo3, P36006) | SPOT intensity (Myo5, Q04439) | Binder | also measured
1 | 0 | 0 | 0 | 0 | 0 | 0 | 0 | 0 | 0 | 0 | 0 | 0 | 0 | 11 | 0 | 0 | 0 | 0 | 465 | 279 | HAPPLPPTAPPPPSL | SPOT intensity (Nbp2, Q12163): 0; SPOT intensity (Pex13, P80667): 0; SPOT intensity (Pin3, Q06449): 0; SPOT intensity (Rvs167, P39743): 0; SPOT intensity (Sho1, P40073): 0; SPOT intensity (Sla1-2, P32790): 0; SPOT intensity (Sla1-3, P32790): 0
2 | 0 | 0 | 0 | 0 | 0 | 0 | 0 | 0 | 0 | 0 | 1 | 1 | 0 | 0 | 3 | 0 | 0 | 0 | 149 | 93 | VPKEPAPAPPPEPDM | SPOT intensity (Nbp2, Q12163): 0; SPOT intensity (Pex13, P80667): 4; SPOT intensity (Pin3, Q06449): 17; SPOT intensity (Rvs167, P39743): 0; SPOT intensity (Sho1, P40073): 0; SPOT intensity (Sla1-2, P32790): 0; SPOT intensity (Sla1-3, P32790): 0
3 | 0 | 0 | 0 | 0 | 0 | 0 | 0 | 0 | 0 | 0 | 0 | 0 | 0 | 0 | 0 | 0 | 0 | 0 | 425 | 318 | PPIPIVPSSPAPPLP | SPOT intensity (Nbp2, Q12163): 0; SPOT intensity (Pex13, P80667): 0; SPOT intensity (Pin3, Q06449): 0; SPOT intensity (Rvs167, P39743): 0; SPOT intensity (Sho1, P40073): 0; SPOT intensity (Sla1-2, P32790): 0; SPOT intensity (Sla1-3, P32790): 0
4 | 0 | 1 | 0 | 3 | 4 | 1 | 1 | 1 | 0 | 3 | 0 | 0 | 0 | 0 | 0 | 0 | 0 | 0 | 371 | 227 | GDHPKGPPPPPPPDE | SPOT intensity (Nbp2, Q12163): 0; SPOT intensity (Pex13, P80667): 0; SPOT intensity (Pin3, Q06449): 2; SPOT intensity (Rvs167, P39743): 0; SPOT intensity (Sho1, P40073): 0; SPOT intensity (Sla1-2, P32790): 0; SPOT intensity (Sla1-3, P32790): 2
5 | 0 | 0 | 0 | 1 | 0 | 0 | 0 | 0 | 0 | 0 | 0 | 0 | 0 | 0 | 0 | 0 | 0 | 0 | 334 | 242 | QPPLPSSAPPIPTSH | SPOT intensity (Nbp2, Q12163): 0; SPOT intensity (Pex13, P80667): 0; SPOT intensity (Pin3, Q06449): 0; SPOT intensity (Rvs167, P39743): 0; SPOT intensity (Sho1, P40073): 0; SPOT intensity (Sla1-2, P32790): 0; SPOT intensity (Sla1-3, P32790): 0
6 | 0 | 0 | 0 | 0 | 0 | 0 | 0 | 0 | 1 | 0 | 0 | 0 | 0 | 0 | 0 | 0 | 0 | 0 | 163 | 49 | MPAPPPPPPPPPGAF | SPOT intensity (Nbp2, Q12163): 0; SPOT intensity (Pex13, P80667): 0; SPOT intensity (Pin3, Q06449): 1; SPOT intensity (Rvs167, P39743): 0; SPOT intensity (Sho1, P40073): 0; SPOT intensity (Sla1-2, P32790): 0; SPOT intensity (Sla1-3, P32790): 2
